Experimental data published in patent publication US8058240B2, “Biological active ligands of melanocortin receptors” (University of Florida Research Foundation, Inc., priority 2006, dated 2011).
Ends that are not written are not given here.

Experiments:
polymorphic hMC4Rs = assay: cAMP based functional bioassay, summary statements for the polymorphic hMC4Rs as a group; assay type: cell-based, human
C271Y hMC4R [1] = target: T1, C271Y hMC4R (Homo sapiens, UniProt P32245, C271Y); assay: cAMP based functional bioassay, agonist stimulation, stably transfected HEK-293 cells; assay type: cell-based
T1 construct: expressed in transfected cells

L106P hMC4R [2] = target: T2, L106P hMC4R (Homo sapiens, UniProt P32245, L106P); assay: as above; assay type: cell-based; details: HEK293, L106P hMC4R, read-out: stimulation (maximal stimulation less than the forskolin control level)
T2 construct: expressed in transfected cells

S58C hMC4R [3] = target: T3, S58C hMC4R (Homo sapiens, UniProt P32245, S58C); assay: as above; assay type: cell-based; details: S58C hMC4R as printed; at up to 10^−5 M concentrations
T3 construct: expressed in transfected cells

I137T hMC4R = target: T4, I137T hMC4R (Homo sapiens, UniProt P32245, I137T); assay: cAMP based functional bioassay, antagonist Schild analysis against agonist MTII; assay type: cell-based; details: ± SEM
T4 construct: expressed in transfected cells

G252S hMC4R = target: T5, G252S hMC4R (Homo sapiens, UniProt P32245, G252S); assay: as above; assay type: cell-based; details: ± SEM
T5 construct: expressed in transfected cells

S58C hMC4R [4] = target: T3, S58C hMC4R; assay: as above; assay type: cell-based; details: ± SEM
R165Q hMC4R = target: T6, R165Q hMC4R (Homo sapiens, UniProt P32245, R165Q); assay: as above; assay type: cell-based; details: ± SEM
T6 construct: expressed in transfected cells

R165W hMC4R = target: T7, R165W hMC4R (Homo sapiens, UniProt P32245, R165W); assay: as above; assay type: cell-based; details: ± SEM
T7 construct: expressed in transfected cells

I102S hMC4R = target: T8, I102S hMC4R (Homo sapiens, UniProt P32245, I102S); assay: as above; assay type: cell-based; details: ± SEM
T8 construct: expressed in transfected cells

C271Y hMC4R [5] = target: T1, C271Y hMC4R; assay: as above; assay type: cell-based; details: ± SEM
N97D hMC4R = target: T9, N97D hMC4R (Homo sapiens, UniProt P32245, N97D); assay: as above; assay type: cell-based
T9 construct: expressed in transfected cells

V253I hMC4R = target: T10, V253I hMC4R (Homo sapiens, UniProt P32245, V253I); assay: as above; assay type: cell-based; details: ± SEM
T10 construct: expressed in transfected cells

I301T hMC4R = target: T11, I301T hMC4R (Homo sapiens, UniProt P32245, I301T); assay: as above; assay type: cell-based; details: ± SEM
T11 construct: expressed in transfected cells

L106P hMC4R [6] = target: T2, L106P hMC4R; assay: as above; assay type: cell-based; details: ± SEM
wild type (WT) hMC4R = target: T12, wild type (WT) hMC4R (Homo sapiens, UniProt P32245); assay: as above; assay type: cell-based; details: ± SEM
T12 construct: expressed in transfected cells

S127L hMC4R = target: T13, S127L hMC4R (Homo sapiens, UniProt P32245, S127L); assay: as above; assay type: cell-based
T13 construct: expressed in transfected cells

T150I hMC4R = target: T14, T150I hMC4R (Homo sapiens, UniProt P32245, T150I); assay: as above; assay type: cell-based; details: ± SEM
T14 construct: expressed in transfected cells

[7] = Schild analysis, agonist MTII, ± SEM

C[C@@H]1NC(=O)[C@H](CC(N)=O)NC(=O)[C@H](Cc2c[nH]c3ccccc23)NC(=O)[C@H](CCCNC(=N)N)NC(=O)[C@@H](Cc2ccccc2)NC(=O)[C@H](Cc2c[nH]cn2)NC(=O)[C@@H](NC(=O)[C@@H](N)Cc2ccc(O)cc2)CSSC[C@@H](C(=O)N[C@@H](Cc2ccc(O)cc2)C(N)=O)NC(=O)[C@H](Cc2ccccc2)NC1=O [AMW3-130, Tyr-c[Cys-His-DPhe-Arg-Trp-Asn-Ala-Phe-Cys]-Tyr-NH2]
agonist EC50 potency (polymorphic hMC4Rs; at all these polymorphic hMC4Rs): sub nM to mM
agonist function at these hMC4Rs (polymorphic hMC4Rs; eleven human MC4R polymorphisms): rescue

CSCC[C@H](NC(=O)[C@H](CCCNC(=N)N)NC(=O)[C@H](Cc1ccc(O)cc1)NC(=O)[C@@H]1CCCN1C(=O)CNC(=O)[C@H](CCC(=O)O)NC(=O)[C@H](CC(=O)O)NC(=O)[C@H](CCCCN)NC(=O)[C@H](CCCCN)NC(=O)[C@H](CCC(=O)O)NC(=O)[C@H](C)N)C(=O)N[C@@H](CCC(=O)O)C(=O)N[C@@H](Cc1c[nH]cn1)C(=O)N[C@@H](Cc1ccccc1)C(=O)N[C@@H](CCCNC(=N)N)C(=O)N[C@@H](Cc1c[nH]c2ccccc12)C(=O)NCC(=O)N[C@@H](CO)C(=O)N1CCC[C@H]1C(=O)N1CCC[C@H]1C(=O)N[C@@H](CCCCN)C(=O)N[C@@H](CC(=O)O)C(=O)O [β-MSH]
response stimulated (C271Y hMC4R [1]; C271Y hMC4R): maximal response

SYSMEHFRWGKPVGKKRRPVKYPN [ACTH(1-24)]
Emax at 1 µM (L106P hMC4R [2]): 40 to 50%
Emax at 1 µM (C271Y hMC4R [1]; HEK293, C271Y hMC4R, at 1 μM, read-out: stimulation (maximal stimulation less than the forskolin control level)): 42 to 58%
ability to stimulate this receptor (S58C hMC4R [3]): inability

hAGRP(87-132): endogenous C-terminal antagonist agouti-related protein ligand, purchased from Peptides International
Antagonist pA2 (I137T hMC4R): 8.33 ± 0.12
Antagonist pA2 (G252S hMC4R): 8.53 ± 0.02
Antagonist pA2 (S58C hMC4R [4]): 8.02 ± 0.13
Antagonist pA2 (R165Q hMC4R): 8.57 ± 0.06
Antagonist pA2 (R165W hMC4R): 8.52 ± 0.17
Antagonist pA2 (I102S hMC4R): 8.17 ± 0.10
Antagonist pA2 (C271Y hMC4R [5]): 8.45 ± 0.03
antagonist potency relative to the wild type control (N97D hMC4R): statistically significant decreased
Antagonist pA2 (N97D hMC4R; [7]): 7.44 ± 0.11
Antagonist pA2 (V253I hMC4R): 8.41 ± 0.17
Antagonist pA2 (I301T hMC4R): 8.60 ± 0.07
Antagonist pA2 (L106P hMC4R [6]): 8.27 ± 0.12
Antagonist pA2 (wild type (WT) hMC4R): 8.28 ± 0.11
antagonist potency relative to the wild type control (S127L hMC4R): statistically significant decreased
Antagonist pA2 (S127L hMC4R; [7]): 7.06 ± 0.16
Antagonist pA2 (T150I hMC4R): 8.34 ± 0.06
